Target: GST-tagged p63RhoGEF (UniProt Q86VW2)
Experiment: pull-down

Sequence of UniProt Q86VW2 (Q86VW2 whole entry): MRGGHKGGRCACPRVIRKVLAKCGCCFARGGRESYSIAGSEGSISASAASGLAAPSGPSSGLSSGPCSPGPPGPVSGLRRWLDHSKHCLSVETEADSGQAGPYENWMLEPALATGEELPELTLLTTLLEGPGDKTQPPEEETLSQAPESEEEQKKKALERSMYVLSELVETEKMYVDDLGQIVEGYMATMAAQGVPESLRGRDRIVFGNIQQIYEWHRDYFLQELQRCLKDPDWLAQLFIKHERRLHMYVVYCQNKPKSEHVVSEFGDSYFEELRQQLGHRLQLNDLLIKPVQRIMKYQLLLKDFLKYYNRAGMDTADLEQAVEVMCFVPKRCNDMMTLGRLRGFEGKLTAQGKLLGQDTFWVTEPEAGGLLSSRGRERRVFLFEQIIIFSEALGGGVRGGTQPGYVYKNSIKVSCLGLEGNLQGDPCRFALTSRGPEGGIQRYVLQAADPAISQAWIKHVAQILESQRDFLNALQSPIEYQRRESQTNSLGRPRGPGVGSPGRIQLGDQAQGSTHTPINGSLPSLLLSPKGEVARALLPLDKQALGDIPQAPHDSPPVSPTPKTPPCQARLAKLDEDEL

Substance: FLAG-MLK3^KR (kinase-deficient, ATP-binding point mutant of MLK3) (from UniProt Q16584 1-847) (enzyme)
- % associated MLK3/input MLK3 after overnight incubation: 44%

Substance: FLAG-MLK3^KR/T277D,S281D (from UniProt Q16584 1-847) (enzyme)
- amount in GST-p63RhoGEF complexes relative to FLAG-MLK3^KR: 2 fold

— PMC2603627
